Patent publication US20200392198A1 (UNIVERSITY OF COPENHAGEN, published 2020)
Ends that are not written are not given here. * marks the point of attachment. Palmitoyl = CCCCCCCCCCCCCCCC(=O)*; Lauroyl = CCCCCCCCCCCC(=O)*

T1: human GLP-2 receptor (human, UniProt O95838 1-553)
T1 sequence (looked up): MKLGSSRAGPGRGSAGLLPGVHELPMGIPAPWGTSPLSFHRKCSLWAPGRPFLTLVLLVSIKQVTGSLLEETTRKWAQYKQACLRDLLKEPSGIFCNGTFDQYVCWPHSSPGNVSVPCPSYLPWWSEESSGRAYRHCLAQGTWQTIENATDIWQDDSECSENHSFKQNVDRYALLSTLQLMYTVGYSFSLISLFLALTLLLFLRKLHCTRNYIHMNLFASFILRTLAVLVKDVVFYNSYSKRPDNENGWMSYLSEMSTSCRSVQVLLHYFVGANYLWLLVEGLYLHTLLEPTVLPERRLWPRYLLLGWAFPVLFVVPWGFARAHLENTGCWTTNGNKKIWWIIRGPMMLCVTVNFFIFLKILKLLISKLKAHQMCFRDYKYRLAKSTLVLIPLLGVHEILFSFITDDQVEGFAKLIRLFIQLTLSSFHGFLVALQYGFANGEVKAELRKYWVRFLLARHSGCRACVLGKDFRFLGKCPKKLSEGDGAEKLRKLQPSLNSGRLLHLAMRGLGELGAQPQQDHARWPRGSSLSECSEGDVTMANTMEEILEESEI

T2: human GIP receptor (human, UniProt P48546 22-466)
T2 sequence (looked up): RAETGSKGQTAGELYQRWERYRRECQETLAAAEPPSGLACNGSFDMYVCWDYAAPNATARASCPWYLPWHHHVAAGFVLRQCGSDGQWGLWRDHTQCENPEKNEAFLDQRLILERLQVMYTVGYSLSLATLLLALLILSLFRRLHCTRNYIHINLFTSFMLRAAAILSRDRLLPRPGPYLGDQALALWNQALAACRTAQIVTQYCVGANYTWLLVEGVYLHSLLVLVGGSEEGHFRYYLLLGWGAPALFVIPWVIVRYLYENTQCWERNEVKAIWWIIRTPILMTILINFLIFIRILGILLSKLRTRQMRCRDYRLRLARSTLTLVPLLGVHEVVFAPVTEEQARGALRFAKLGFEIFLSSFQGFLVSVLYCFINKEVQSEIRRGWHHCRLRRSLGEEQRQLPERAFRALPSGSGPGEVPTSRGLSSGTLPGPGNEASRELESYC


Experiments:
human GLP-2 receptor = target: T1, human GLP-2 receptor; assay: cell-based or functional assay
human GIP receptor = target: T2, human GIP receptor; assay: cell-based or functional assay

| Binder | EC50 (cAMP) (human GLP-2 receptor) | Emax (10 µM), % of native GLP-2 (human GLP-2 receptor) | fold (EC50 vs native GLP-2) (human GLP-2 receptor) | logEC50 (cAMP) (human GLP-2 receptor) | EC50 (cAMP) (human GIP receptor) | Emax (10 µM), % of native GIP (human GIP receptor) | fold (EC50 vs native GIP) (human GIP receptor) | logEC50 (cAMP) (human GIP receptor) |
| --- | --- | --- | --- | --- | --- | --- | --- | --- |
| HADGTFISDYSTILDNLAARDFINWLIQTKGKKNDWKHNITQ [GIP-GLP-2 co-agonist 34] | 1.2 nM | 94% | 0.96 fold | -8.94 | 0.1 nM | 100% | 1.1 fold | -10 |
| HADGTFISDYSTILDNLAARDFINWLIQTK(Lauroyl)ITK [GIP-GLP-2 co-agonist 30] | 36 nM | 73% | 30 fold | -7.44 | 0.63 nM | 100% | 7.1 fold | -9.2 |
| HADGTFISDYSTILDNLAARDFINWLIQTKGK(Lauroyl)K [GIP-GLP-2 co-agonist 35] | 2.3 nM | 68% | 1.9 fold | -8.63 | 0.48 nM | 99% | 5.4 fold | -9.32 |
| HADGTFSSDYSTILDNLAARDFINWLIQTKITD (not fully specified (residue 1, N-terminus); also: C16 acyl group on His 1 (attachment site not given here)) [GIP-GLP-2 co-agonist 22] | 1.3 nM | 72% | 1.1 fold | -8.88 | 0.41 nM | 100% | 4.6 fold | -9.39 |
| HADGTFISDYSTILDNLAAKDFINWLIQTKITK [GIP-GLP-2 co-agonist 28] | 1.2 nM | 112% | 0.98 fold | -8.93 | 0.2 nM | 100% | 2.2 fold | -9.7 |
| HADGTFISDYSTILDNLAARDFINWLIQTKITK (not fully specified (residue 1, N-terminus); also: C16 acyl group on His 1 (attachment site not given here)) [GIP-GLP-2 co-agonist 29] | 17 nM | 82% | 14 fold | -7.76 | 1.82 nM | 115% | 20 fold | -8.74 |
| HADGTFISDYSKILDNLAARDFINWLIQTKITK [GIP-GLP-2 co-agonist 24] | 0.74 nM | 96% | 0.62 fold | -9.13 | 0.15 nM | 100% | 1.7 fold | -9.82 |
| HADGTFISDYSTILDNLKARDFINWLIQTKITK [GIP-GLP-2 co-agonist 27] | 0.56 nM | 100% | 0.47 fold | -9.25 | 0.55 nM | 100% | 6.2 fold | -9.26 |
| HADGTFISDYSTIKDNLAARDFINWLIQTKITK [GIP-GLP-2 co-agonist 25] | 3.5 nM | 92% | 2.9 fold | -8.46 | 0.44 nM | 92% | 4.9 fold | -9.36 |
| HADGTFISDYSTILDNLAARDFINWLIQTKITK (C12 acyl group on Lys 33 (K(C12/33), 'with C12 pos 33')) [GIP-GLP-2 co-agonist 32] | 6.2 nM | 91% | 5.1 fold | -8.21 | 0.15 nM | 100% | 1.7 fold | -9.81 |
| HADGTFISDYSTILDKLAARDFINWLIQTKITK [GIP-GLP-2 co-agonist 26] | 0.31 nM | 100% | 0.26 fold | -9.51 | 0.03 nM | 100% | 0.34 fold | -10.5 |
| HADGTFISDYSTILDNLAARDFINWLIQTKITK (C16 acyl group on Lys 33 (K(c16/33), 'with C16 pos 33')) [GIP-GLP-2 co-agonist 33] | 13 nM | 82% | 11 fold | -7.89 | 0.32 nM | 100% | 3.6 fold | -9.5 |
| HADGTFSSDYSTILDNLAARDFINWLIQTK(Palmitoyl)ITD [GIP-GLP-2 co-agonist 23] | 1.4 nM | 57% | 1.2 fold | -8.85 | 0.76 nM | 81% | 8.5 fold | -9.12 |
| HADGTFISDYSTILDNLAARDFINWLIQTKGK(Palmitoyl)K [GIP-GLP-2 co-agonist 36] | 20 nM | 71% | 17 fold | -7.7 | 0.79 nM | 100% | 8.9 fold | -9.1 |
| HADGTFISDYSTILDNLAARDFINWLIQTK(Palmitoyl)ITK [GIP-GLP-2 co-agonist 31] | 107 nM | 91% | 89 fold | -6.97 | 1.7 nM | 91% | 19 fold | -8.77 |
